Source: ChEMBL document CHEMBL4828702, “Identification of Novel High-Affinity Substrates of OCT1 Using Machine Learning-Guided Virtual Screening and Experimental Validation” (J Med Chem, 2021)

Tests used:
[1] = biological target: Solute carrier family 22 member 1 (Homo sapiens) (UniProt O15245); experiment: Substrate activity at human OCT1 expressed in HEK293 cells assessed as increase in compound uptake by measuring intrinsic clearance incubated for 2 mins by LC-MS/MS analysis
OCT1 = experiment: Ratio of drug uptake in human OCT1 expressing HEK293 cells at 2.5 uM to drug uptake in empty vector transfected human HEK293 cells at 2.5 uM; format: ADME, cell-based
[2] = substrate: Nc1ccncc1N; experiment: (§1) Substrate activity at human OCT1 expressed in HEK293 cells assessed as increase in compound uptake by measuring Km incubated for 2 mins by LC-MS/MS analysis; format: cell-based
[3] = substrate: CC(CCc1ccc(O)cc1)NCCc1ccc(O)c(O)c1; experiment: as §1; format: cell-based
[4] = substrate: CCN(CC)C(=O)C1(c2ccccc2)CC1CN; experiment: as §1; format: cell-based
[5] = substrate: N=C(N)NC(=O)Cc1c(Cl)cccc1Cl; experiment: as §1; format: cell-based
[6] = substrate: CC(C)NC[C@H](O)COc1ccc(O)cc1; experiment: as §1; format: cell-based
[7] = substrate: N=C(N)NCc1cccc(I)c1; experiment: as §1; format: cell-based
[8] = substrate: CNC[C@H](O)c1cccc(O)c1; experiment: as §1; format: cell-based
[9] = substrate: NCC(O)c1ccc(O)cc1; experiment: as §1; format: cell-based
[10] = substrate: CC(CCc1ccc(O)cc1)NCC(O)c1ccc(O)cc1; experiment: as §1; format: cell-based
[11] = substrate: CN[C@@H]1CCc2[nH]c3ccc(C(N)=O)cc3c2C1; experiment: as §1; format: cell-based
[12] = substrate: CC(NCCc1ccc(O)cc1)C(O)c1ccc(O)cc1; experiment: as §1; format: cell-based
[13] = substrate: C[N+]1(C)[C@@H]2C[C@H](OC(=O)[C@H](CO)c3ccccc3)C[C@H]1[C@@H]1O[C@@H]12; experiment: as §1; format: cell-based
[14] = substrate: NC(N)=Nc1nc(CSCC/C(N)=N/S(N)(=O)=O)cs1; experiment: as §1; format: cell-based
[15] = substrate: NCC(O)c1cccc(O)c1; experiment: as §1; format: cell-based
[16] = substrate: C[N+]1(CCC(C(N)=O)(c2ccccc2)c2ccccc2)CCCCC1; experiment: as §1; format: cell-based
[17] = substrate: CC[N+](C)(C)c1cccc(O)c1; experiment: as §1; format: cell-based
[18] = substrate: CCN(CC)CCNC(=O)c1ccc(NS(C)(=O)=O)cc1; experiment: as §1; format: cell-based
[19] = substrate: CC[N+](CC)(CC)Cc1ccccc1; experiment: as §1; format: cell-based
[20] = substrate: CC[N+](CC)(CC(=O)Nc1c(C)cccc1C)Cc1ccccc1; experiment: as §1; format: cell-based
[21] = substrate: CC(C)NCC(O)c1ccc(NS(C)(=O)=O)cc1; experiment: as §1; format: cell-based
[22] = substrate: C[N+]1(C)CCN(c2ccccc2)CC1; experiment: as §1; format: cell-based
[23] = substrate: Nc1ccncc1N; experiment: (§2) Substrate activity at human OCT1 expressed in HEK293 cells assessed as increase in compound uptake by measuring Vmax incubated for 2 mins by LC-MS/MS analysis; format: cell-based
[24] = substrate: CC(CCc1ccc(O)cc1)NCCc1ccc(O)c(O)c1; experiment: as §2; format: cell-based
[25] = substrate: CCN(CC)C(=O)C1(c2ccccc2)CC1CN; experiment: as §2; format: cell-based
[26] = substrate: N=C(N)NC(=O)Cc1c(Cl)cccc1Cl; experiment: as §2; format: cell-based
[27] = substrate: CC(C)NC[C@H](O)COc1ccc(O)cc1; experiment: as §2; format: cell-based
[28] = substrate: N=C(N)NCc1cccc(I)c1; experiment: as §2; format: cell-based
[29] = substrate: CNC[C@H](O)c1cccc(O)c1; experiment: as §2; format: cell-based
[30] = substrate: NCC(O)c1ccc(O)cc1; experiment: as §2; format: cell-based
[31] = substrate: CC(CCc1ccc(O)cc1)NCC(O)c1ccc(O)cc1; experiment: as §2; format: cell-based
[32] = substrate: CN[C@@H]1CCc2[nH]c3ccc(C(N)=O)cc3c2C1; experiment: as §2; format: cell-based
[33] = substrate: CC(NCCc1ccc(O)cc1)C(O)c1ccc(O)cc1; experiment: as §2; format: cell-based
[34] = substrate: C[N+]1(C)[C@@H]2C[C@H](OC(=O)[C@H](CO)c3ccccc3)C[C@H]1[C@@H]1O[C@@H]12; experiment: as §2; format: cell-based
[35] = substrate: NC(N)=Nc1nc(CSCC/C(N)=N/S(N)(=O)=O)cs1; experiment: as §2; format: cell-based
[36] = substrate: NCC(O)c1cccc(O)c1; experiment: as §2; format: cell-based
[37] = substrate: C[N+]1(CCC(C(N)=O)(c2ccccc2)c2ccccc2)CCCCC1; experiment: as §2; format: cell-based
[38] = substrate: CC[N+](C)(C)c1cccc(O)c1; experiment: as §2; format: cell-based
[39] = substrate: CCN(CC)CCNC(=O)c1ccc(NS(C)(=O)=O)cc1; experiment: as §2; format: cell-based
[40] = substrate: CC[N+](CC)(CC)Cc1ccccc1; experiment: as §2; format: cell-based
[41] = substrate: CC[N+](CC)(CC(=O)Nc1c(C)cccc1C)Cc1ccccc1; experiment: as §2; format: cell-based
[42] = substrate: CC(C)NCC(O)c1ccc(NS(C)(=O)=O)cc1; experiment: as §2; format: cell-based
[43] = substrate: C[N+]1(C)CCN(c2ccccc2)CC1; experiment: as §2; format: cell-based

Chain of Solute carrier family 22 member 1 (Homo sapiens) (O15245 whole entry, looked up): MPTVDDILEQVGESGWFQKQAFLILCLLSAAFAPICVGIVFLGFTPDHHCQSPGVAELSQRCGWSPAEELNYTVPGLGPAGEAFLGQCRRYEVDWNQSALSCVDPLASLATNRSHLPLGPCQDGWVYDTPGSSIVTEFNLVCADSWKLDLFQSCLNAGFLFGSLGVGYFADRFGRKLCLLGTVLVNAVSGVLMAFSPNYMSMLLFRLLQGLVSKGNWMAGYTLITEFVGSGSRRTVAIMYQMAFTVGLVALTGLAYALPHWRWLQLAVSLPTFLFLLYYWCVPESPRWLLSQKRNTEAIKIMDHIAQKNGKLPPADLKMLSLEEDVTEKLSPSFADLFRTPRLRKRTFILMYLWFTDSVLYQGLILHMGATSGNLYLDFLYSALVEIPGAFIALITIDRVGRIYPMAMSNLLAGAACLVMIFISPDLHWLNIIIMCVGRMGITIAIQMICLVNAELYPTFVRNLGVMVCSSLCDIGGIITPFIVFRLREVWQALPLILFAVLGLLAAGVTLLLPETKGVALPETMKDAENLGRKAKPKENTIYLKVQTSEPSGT

## NCC(O)c1cccc(O)c1 (stereo unspecified) [NORFENEFRINE]
[1]
  clearance: 4.6 mL/min/g
OCT1
  uptake ratio at 2.5 µM: 2.1

## Nc1ccncc1N [AMIFAMPRIDINE]
[1]
  clearance: 18.8 mL/min/g
OCT1
  uptake ratio at 2.5 µM: 6.8

## CC(C)NC[C@H](O)COc1ccc(O)cc1 [PRENALTEROL]
[1]
  clearance: 12.4 mL/min/g
OCT1
  uptake ratio at 2.5 µM: 5.3

## CC(NCCc1ccc(O)cc1)C(O)c1ccc(O)cc1 (stereo unspecified) [RITODRINE]
[1]
  clearance: 104 mL/min/g
OCT1
  uptake ratio at 2.5 µM: 7.6

## C[N+]1(C)CCN(c2ccccc2)CC1 [DIMETHYLPHENYLPIPERAZINIUM]
[1]
  clearance: 47.2 mL/min/g
OCT1
  uptake ratio at 2.5 µM: 38.9

## CC[N+](C)(C)c1cccc(O)c1 [EDROPHONIUM]
[1]
  clearance: 99.5 mL/min/g
OCT1
  uptake ratio at 2.5 µM: 42.6

## CC[N+](CC)(CC)Cc1ccccc1
[1]
  clearance: 62.8 mL/min/g
OCT1
  uptake ratio at 2.5 µM: 67.5

## NC(N)=Nc1nc(CSCC/C(N)=N/S(N)(=O)=O)cs1
[1]
  clearance: 87.4 mL/min/g

## CC[N+](CC)(CC(=O)Nc1c(C)cccc1C)Cc1ccccc1 [DENATONIUM]
[1]
  clearance: 71.4 mL/min/g
OCT1
  uptake ratio at 2.5 µM: 21.6

## CN[C@@H]1CCc2[nH]c3ccc(C(N)=O)cc3c2C1 [FROVATRIPTAN]
[1]
  clearance: 50.3 mL/min/g
OCT1
  uptake ratio at 2.5 µM: 33.1

## N=C(N)NCc1cccc(I)c1 [IOBENGUANE]
[1]
  clearance: 3160 mL/min/g
OCT1
  uptake ratio at 2.5 µM: 10.1

## NCC(O)c1ccc(O)cc1 (stereo unspecified)
[1]
  clearance: 9.1 mL/min/g

## CC(CCc1ccc(O)cc1)NCC(O)c1ccc(O)cc1 (stereo unspecified) [RACTOPAMINE]
[1]
  clearance: 111 mL/min/g
OCT1
  uptake ratio at 2.5 µM: 7.1

## C[N+]1(CCC(C(N)=O)(c2ccccc2)c2ccccc2)CCCCC1
[1]
  clearance: 114 mL/min/g
OCT1
  uptake ratio at 2.5 µM: 30.9

## CCN(CC)CCNC(=O)c1ccc(NS(C)(=O)=O)cc1 [SEMATILIDE]
[1]
  clearance: 3.3 mL/min/g
OCT1
  uptake ratio at 2.5 µM: 3.5

## N=C(N)NC(=O)Cc1c(Cl)cccc1Cl [GUANFACINE]
[1]
  clearance: 138 mL/min/g
OCT1
  uptake ratio at 2.5 µM: 4.3

## CNC[C@H](O)c1cccc(O)c1 [PHENYLEPHRINE]
[1]
  clearance: 17.3 mL/min/g
OCT1
  uptake ratio at 2.5 µM: 10.6

## CC(CCc1ccc(O)cc1)NCCc1ccc(O)c(O)c1 (stereo unspecified) [DOBUTAMINE]
[1]
  clearance: 5.2 mL/min/g
OCT1
  uptake ratio at 2.5 µM: 14.7

B1: POU domain, class 2, transcription factor 1 (Homo sapiens), P14859 (protein)
chain: MNNPSETSKPSMESGDGNTGTQTNGLDFQKQPVPVGGAISTAQAQAFLGHLHQVQLAGTSLQAAAQSLNVQSKSNEESGDSQQPSQPSQQPSVQAAIPQTQLMLAGGQITGLTLTPAQQQLLLQQAQAQAQLLAAAVQQHSASQQHSAAGATISASAATPMTQIPLSQPIQIAQDLQQLQQLQQQNLNLQQFVLVHPTTNLQPAQFIISQTPQGQQGLLQAQNLLTQLPQQSQANLLQSQPSITLTSQPATPTRTIAATPIQTLPQSQSTPKRIDTPSLEEPSDLEELEQFAKTFKQRRIKLGFTQGDVGLAMGKLYGNDFSQTTISRFEALNLSFKNMCKLKPLLEKWLNDAENLSSDSSLSSPSALNSPGIEGLSRRRKKRTSIETNIRVALEKSFLENQKPTSEEITMIADQLNMEKEVIRVWFCNRRQKEKRINPPSSGGTSSSPIKAIFPSPTSLVATTPSLVTSSAATTLTVSPVLPLTSAAVTNLSVTGTSDTTSNNTATVISTAPPASSAVTSPSLSPSPSASASTSEASSASETSTTQTTSTPLSSPLGTSQVMVTASGLQTAAAAALQGAAQLPANASLAAMAAAAGLNPSLMAPSQFAAGGALLSLNPGTLSGALSPALMSNSTLATIQALASGGSLPITSLDATGNLVFANAGGAPNIVTAPLFLNPQNLSLLTSNPVSLVSAAAASAGNSAPVASLHATSTSAESIQNSLFTVASASGAASTTTTASKAQ
[2]
  Km: 508 µM
[3]
  Km: 28.4 µM
[4]
  Km: 2.26 µM
[5]
  Km: 8.6 µM
[6]
  Km: 13.3 µM
[7]
  Km: 15.9 µM
[8]
  Km: 221 µM
[9]
  Km: 389 µM
[10]
  Km: 2.1 µM
[11]
  Km: 61.9 µM
[12]
  Km: 1.67 µM
[13]
  Km: 23.4 µM
[14]
  Km: 35.7 µM
[15]
  Km: 994 µM
[16]
  Km: 8.6 µM
[17]
  Km: 26.4 µM
[18]
  Km: 102 µM
[19]
  Km: 38.6 µM
[20]
  Km: 12.6 µM
[21]
  Km: 196 µM
[22]
  Km: 62 µM
[23]
  Vmax: 9570 pmol/mg/min
[24]
  Vmax: 147 pmol/mg/min
[25]
  Vmax: 340 pmol/mg/min
[26]
  Vmax: 1180 pmol/mg/min
[27]
  Vmax: 165 pmol/mg/min
[28]
  Vmax: 5030 pmol/mg/min
[29]
  Vmax: 3820 pmol/mg/min
[30]
  Vmax: 3540 pmol/mg/min
[31]
  Vmax: 234 pmol/mg/min
[32]
  Vmax: 3110 pmol/mg/min
[33]
  Vmax: 173 pmol/mg/min
[34]
  Vmax: 1210 pmol/mg/min
[35]
  Vmax: 3120 pmol/mg/min
[36]
  Vmax: 4550 pmol/mg/min
[37]
  Vmax: 971 pmol/mg/min
[38]
  Vmax: 2630 pmol/mg/min
[39]
  Vmax: 338 pmol/mg/min
[40]
  Vmax: 2420 pmol/mg/min
[41]
  Vmax: 902 pmol/mg/min
[42]
  Vmax: 2760 pmol/mg/min
[43]
  Vmax: 2930 pmol/mg/min
